Measured values taken from the supplement of paper PMC12783771.
± gives the standard deviation of the averaged measurements.

B1: library; numbered along this chain (parent)
chain: MNIQIGELAKRTACPVVTIRFYEQEGLLPPPGRSRGNFRLYGEEHVERLQFIRHCRSLDMPLSDVRTLLSYRKRPDQDCGEVNMLLDEHIRQVESRIGALLELKHHLVELREACSGARPAQSCGILQGLSDCVCDTRGTTAHPSD

Columns and labels:
[1] = variants of: B1; test: sfGFP reporter fluorescence (15 h) (µM FITC); higher = higher leak; conditions: library round: Round 1; ligand: none
Method in brief: (§1)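 Readout was endpoint sfGFP fluorescence, converted to µM FITC through standard curves. Reactions were 1 μL of BL21 Star (DE3) PANOx-SP extract with pPbrR-sfGFP reporter, 30 μg/mL GamS and linear PbrR templates normalized to 5 nM, containing 1 µM lead chloride, 30 µM zinc acetate or no metal. Incubation lasted 15 hr at 30 °C, with up to three biological replicates.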

[2] = variants of: B1; test: sfGFP reporter fluorescence (15 h) (µM FITC); higher = stronger transcriptional activation; conditions: library round: Round 1
Method in brief: as §1

Row | Variant | sfGFP reporter fluorescence [1] | sfGFP reporter fluorescence ([2]; ligand: 1 µM Pb) | sfGFP reporter fluorescence ([2]; ligand: 30 µM Zn)
1 | N83T P143R | 0.0618 ± 0.0013 | 0.0709 ± 0.0047 | 0.145 ± 0.0075
2 | N83T P143W | 0.0657 ± 0.0018 | 0.07806 ± 0.00064 | 0.131 ± 0.0017
3 | R91A K104V | 0.0657 ± 0.0027 | 0.119 ± 0.002 | 0.748 ± 0.029
4 | L126I D135A | 0.0632 ± 0.0024 | 0.064 ± 0.0037 | 0.152 ± 0.0059
5 | I90L G128T D135A | 0.0632 ± 0.00092 | 0.0679 ± 0.0048 | 0.266 ± 0.031
6 | D131C D135A | 0.0605 ± 0.0013 | 0.0742 ± 0.0019 | 0.221 ± 0.02
7 | L126I D131C | 0.0635 ± 0.0019 | 0.0635 ± 0.0022 | 0.0699 ± 0.0022
8 | G128I C134E | 0.0745 ± 0.0014 | 0.139 ± 0.0047 | 1.38 ± 0.067
9 | D131A D135A | 0.077 ± 0.0023 | 0.184 ± 0.0043 | 2.2 ± 0.17
10 | D131A D135P | 0.0689 ± 0.0013 | 0.119 ± 0.0078 | 0.654 ± 0.017
11 | D131A D135S | 0.0699 ± 0.0026 | 0.0955 ± 0.0012 | 0.604 ± 0.0087
12 | D131A D135E | 0.06499 ± 0.00042 | 0.0805 ± 0.0086 | 0.571 ± 0.06
13 | E109L G128H P143L | 0.0639 ± 0.00092 | 0.0852 ± 0.0089 | 0.204 ± 0.018
14 | N83T L107C G128I | 0.195 ± 0.0097 | 0.702 ± 0.17 | 1.75 ± 0.2
15 | N83T L107C G128M | 0.432 ± 0.012 | 1.31 ± 0.1 | 2.39 ± 0.53
16 | I125L D131A D135A | 0.065 ± 0.0029 | 0.0661 ± 0.0051 | 0.0699 ± 0.0045
17 | L129I D131C | 0.0646 ± 0.0017 | 0.0641 ± 0.0044 | 0.07 ± 0.0017
18 | K104V D135A | 0.0696 ± 0.0011 | 0.123 ± 0.0063 | 0.678 ± 0.073
19 | N83T R111F | 0.0639 ± 0.0014 | 0.0644 ± 0.004 | 0.085 ± 0.0026
20 | N83T R111D | 0.0624 ± 0.00076 | 0.06 ± 0.0029 | 0.068 ± 0.0024
21 | N83T R111L | 0.0571 ± 0.0031 | 0.0683 ± 0.0036 | 0.167 ± 0.011
22 | N83T R111A | 0.0564 ± 0.00097 | 0.0834 ± 0.0021 | 0.341 ± 0.031
23 | K104R D135A | 0.0652 ± 0.0026 | 0.0866 ± 0.004 | 0.368 ± 0.043
